Data: article PMC5349596

Target: Asp74 (UniProt position 74, WARYIDWVITT)
Experiment: UV-vis
Conditions: room temperature (approx. 25 °C); not stated (no added salt; low-millimolar buffer mixture; pH adjusted with concentrated H2SO4); 0.89 mM citric acid, 0.89 mM MES, 1.1 mM TES, 0.78 mM TAPS, 1.1 mM CHES and 0.33 mM CAPS; Folded, retinal-bound (nearly 100% all-trans), detergent-solubilised; dark or light adaptation during the titration not stated

Rubrobacter xylanophilus rhodopsin (RxR) (Rubrobacter xylanophilus DSM 9941)
pKa: 1.3 ± 0.17
